# In PMC5705077 (Biochemistry, 2017):
# B1: Rad51 (natural protein, UniProt Q99133 1-339, looked up)
# chain: MSQNAQDPAQIGEDDMGEAFGPLPVSKLEEFGISSSDCKKLAESGYNTVESIAFTPKKQLLLVKGVSEAKADKILAEAARLVPMGFTTATEFHARRNELISITTGSKNLDAILGGGMETGSITELYGEFRTGKSQLCHTLAVTCQLPVDMGGGEGKCLYIDTENTFRPTRLLAVAERFGLNGEEVLDNVAYARAYNADHQLQLLMQASAMMAESRFSLLIVDSLTSLYRTDFSGRGELSARQMHLAKFLRGLMRLADEFGVAVVITNQVVAQVDGATAFTADAKKPIGGNIVAHASTTRLSLRKGRGNQRICRIADSPCLPEADAVFAIGPEGIIDPVD
# Columns and labels:
# MBP-Brh2^106–1075 [1] = biological target: T1, MBP-Brh2^106–1075 (Ustilago maydis, UniProt Q8NJ74 106-1075); assay: pull-down
# T1 sequence (looked up): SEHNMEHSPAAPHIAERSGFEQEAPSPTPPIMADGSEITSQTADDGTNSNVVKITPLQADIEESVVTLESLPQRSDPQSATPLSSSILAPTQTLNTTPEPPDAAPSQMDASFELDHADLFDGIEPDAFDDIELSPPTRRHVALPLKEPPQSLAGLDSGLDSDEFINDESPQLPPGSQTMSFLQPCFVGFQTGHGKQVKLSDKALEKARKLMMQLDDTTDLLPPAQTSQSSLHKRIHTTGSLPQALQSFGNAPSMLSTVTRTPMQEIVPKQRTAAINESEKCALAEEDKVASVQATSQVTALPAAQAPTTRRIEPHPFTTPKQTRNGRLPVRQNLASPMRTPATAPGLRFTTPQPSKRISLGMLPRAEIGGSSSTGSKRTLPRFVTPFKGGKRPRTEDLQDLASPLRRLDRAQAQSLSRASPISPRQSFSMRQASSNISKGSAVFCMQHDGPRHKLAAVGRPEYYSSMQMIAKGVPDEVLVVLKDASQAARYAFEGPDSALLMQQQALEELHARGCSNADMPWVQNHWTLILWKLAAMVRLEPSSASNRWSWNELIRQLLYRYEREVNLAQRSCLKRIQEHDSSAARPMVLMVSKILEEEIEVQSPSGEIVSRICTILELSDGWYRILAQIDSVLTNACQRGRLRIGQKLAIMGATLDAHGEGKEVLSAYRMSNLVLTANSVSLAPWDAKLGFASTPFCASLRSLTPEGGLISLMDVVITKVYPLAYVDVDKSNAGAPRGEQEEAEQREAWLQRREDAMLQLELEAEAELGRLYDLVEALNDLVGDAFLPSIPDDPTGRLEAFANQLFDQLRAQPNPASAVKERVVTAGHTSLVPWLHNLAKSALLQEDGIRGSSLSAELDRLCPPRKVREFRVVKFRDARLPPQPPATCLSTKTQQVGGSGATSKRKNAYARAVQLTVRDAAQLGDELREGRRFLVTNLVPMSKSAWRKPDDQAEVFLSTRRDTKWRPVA
# MBP-Brh2^106–1075 [2] = biological target: T1, MBP-Brh2^106–1075; assay: pull-down; remark: listed apart in the source
binder,measurement,setting,value
B1,stoichiometry N,MBP-Brh2^106–1075 [1],~2.2 Rad51 per Brh2 (mol:mol)
same,fold Rad51 associated relative to the Brh2/Dss1 heterodimer,MBP-Brh2^106–1075 [2],~10 fold
